Data published in US20040248211A1, “ICAM-related protein” (priority 1992, published 2004).

Legend:
[1] = system: PBL; assay: Pre-incubation on plate-bound antibody then SEA proliferation; assay type: cell-based, human; details: cells moved to clean wells; SEA 10 pg/ml, 3 days
Protocol: The minimum time required for plate-bound anti-ICAM-R to inhibit SEA-induced proliferation was also determined. PBL were pre-incubated on plate-bound ICR-4.2, ICR-1.1 or isotype-matched anti-HLA-I control antibodies B-H9 (IgG1) and I0T2 (IgG2) with or without SEA (10 ρg/ml) for 3, 5 and 7 hours. PBL were then transferred to clean wells and cultured in the presence of SEA (10 pg/ml) for 3 days.

[2] = system: PBMC; assay: PBMC activation markers, immobilized antibody plus low dose anti-CD3; assay type: cell-based, human; details: immobilized antibody 10 μg/well plus anti-CD3 0.025 μg/well
Protocol: Ten μg of anti-ICAM-R monoclonal antibodies ICR-1.1 or ICR-4.2 (or control monoclonal antibodies to HLA Class I; Serotec, Oxford, England) were added per well of 96-well flat bottom tissue culture plates either in the presence or absence of anti-CD3 antibody initially added at 0.025 μg/well and washed to remove unbound antibody. Freshly obtained PBMC were immediately added (2×10^5 cells/well). The cells were then incubated for a total of either 16 hours or 3 days at which time the cells were removed and washed 2 times in ice cold FACS buffer. Two×10^5 cells were then resuspended in 50 μl ice cold FACS buffer, and 5 μl of FITC-conjugated anti-CD69, anti-transferrin receptor, anti-IL-2 receptor antibody or anti-FITC conjugated control Ig was added. The cells were incubated at 4° C. for 30 minutes and then washed 2 times in 0.5 ml ice cold FACS buffer. After the final wash the cells were resuspended in 0.5 ml FACS buffer and fluorescence determined by FACScan analysis. […] The effect was more pronounced with antibody ICR-1.1. Similar results were also obtained after 16 hours in culture.

[3] = system: SKW3 T cells; assay: Homotypic aggregation assay, SKW3; assay type: cell-based, human; details: after four hours, Ig and Fab′ at 1 μg/ml
Protocol: Aggregation assays were done in duplicate, with and without addition of PMA (50 ng/ml). 3×10^5 cells in RPMI 1640 medium with 10% fetal calf serum were added in a flat-bottomed 96-well microtest plate. When one antibody was tested in an experiment, 50 μl of purified antibody or hybridoma supernatant were added to the wells (PMA was added at the same time to selected wells). When two antibodies were tested in the same experiment, the antibodies were added sequentially to the cells at room temperature and incubated for 30 minutes each (incubation for 15 minutes at 37° C. produced the same results), and then the cells were incubated at 37° C. […] After incubation with the antibody or antibodies, cells were uniformly resuspended and then incubated at 37° C. for 4 to 24 hours. Aggregation scoring was done with an inverted microscope. In each experiment, the efficacy of the PMA stimulation was checked in parallel by stimulating Raji cells with an equal amount of PMA and determining the amount of aggregation blockable by monoclonal antibodies to CD18, CD11 a, and ICAM-1 molecules.
To confirm that aggregation was induced by the anti-ICAM-R antibodies ICR-2.1, ICR-1.1, and ICR-3.1 the aggregation assays were performed using both the whole immunoglobulin (ICR-1.1-Ig) and Fab′ fragments (ICR-1.1-Fab′) purified from the same anti-ICAM-R monoclonal antibody (ICR-1.1). […]

[4] = system: ICAM-R peptides; assay: Multipin peptide ELISA; assay type: binding, human; details: hybridoma supernatant
Protocol: The first method for mapping linear epitopes recognized by the ICAM-R specific antibodies of the invention utilized the Multipin Peptide Synthesis System (Chiron Mimotopes Pty. Ltd., Victoria, Australia) which places ten amino acid peptides representing overlapping segments of the protein of interest on the surface of a series of plastic pins. A modified ELISA test is performed to determine binding of a monoclonal antibody to each peptide.
The ELISA to determine binding of the monoclonal antibodies to ICAM-R peptides was run as follows. […] The pins were transferred to plates containing ABTS substrate solution [0.5 mg/ml ABTS, 0.01% weight/volume H2O2 in substrate buffer (17.9 g/L Na2HPO4H2O, 16.8 g/L citric acid monohydrate, pH 4.0)] for 45 minutes at 20° C. with agitation and then the plates were read at 410/495 nm.
Relative reactivity with individual pins was determined after normalizing results for differences in immunoglobulin concentrations in anti-ICAM-R and control hybridoma supernatants and reactivities of positive controls between assays. Mouse IgG levels for each supernatant had been determined by antibody capture ELISA as follows. […] Antibody concentrations of culture supernatant were determined by fitting measured optical densities to the standard curve of the isotype matched control.

B1: ICR-1.1: anti-ICAM-R monoclonal antibody, IgG2a, domain 1, ATCC HB 11053 (antibody, V domains shown)
VH: QVQLQQSGAELAKPGASVKMSCKASGYTFTVYWMHWVKQRPGQGLEWIGYINPNTDYTEYNQRFQDKATLTADKSSSTAYMQLSSLTSEDSAVYYCARWGGNSYGLDYWGQGTSVTVSS
VL: QIVLTQSPALMSASPGEKVTMTCSASSSVSYIYWYQQKPRSSPKPWIYLTSNLASGVPARFSGSGSGASYSLTISIMEAEDAATYYCQQWKSIPLTFGAGTKLELK
- SEA proliferation after 3 hours pre-incubation on immobilized antibody [1]: significantly reduced proliferation
- PBMC activation marker expression after 16 hours [2]: induced expression of CD69, but not the transferrin receptor
- PBMC activation marker expression after 3 days [2]: significant upregulation of both the transferrin and IL-2 receptors
- Aggregation [3]: 3 (50 to 100% cells were in loose clusters)
- reactivity with overlapping ten amino acid ICAM-R peptides [4]: two overlapping peptides spanning amino acids 13-23
